The target of experiment [1] is T1, alphaVbeta3 integrin, native human, on rhabdomyosarcoma (RD) cells and on human umbilical vein endothelial … (human, UniProt P06756 31-1048; P05106 27-788).
T1 construct: whole, on cells; also called αVβ3; native human β3
The experiment can be described thus: flow cytometry on RD cells expressing alphaVbeta3, PE anti-human IgG; EC50 = concentration where 50% of cells gated in R2.
Protocol: (§1) The binding of NS0-derived HLMC Composite Human Antibody™ variants to rhabdomyosarcoma (RD) cells expressing alphaVbeta3 integrin was assessed in a flow cytometry binding assay. Briefly, a subconfluent monolayer of RD cells was prepared and incubated in serum free medium for 24 hours prior to harvest. […] Cells were resuspended into a suitable volume of cold FACS buffer (1% FBS/0.01% sodium azide/PBS) to yield a final cell density of 4×10⁶ cells/ml.
(§2) The plates were incubated at 4° C. for 1 hour. Cells were washed with FACS buffer, resuspended in 100 μl of secondary antibody (Sigma Cat. No. P8047, goat anti-human IgG (γ chain specific; PE conjugated) and incubated for 1 hour at 4° C. Cells were washed twice, resuspended in a final volume of 175 μl FACS buffer and transferred to FACS tubes. Fluorescence was measured by flow cytometry and data plotted as normalized % positive events (gated in R2).

Experiment [2] addresses T1, alphaVbeta3 integrin, native human, on …. The experiment is described as follows: flow cytometry on RD cells expressing alphaVbeta3; reference chimeric HLMC.
Protocol: as §1, §2

T1 sequence (P06756 31-1048, chain 1 of 2): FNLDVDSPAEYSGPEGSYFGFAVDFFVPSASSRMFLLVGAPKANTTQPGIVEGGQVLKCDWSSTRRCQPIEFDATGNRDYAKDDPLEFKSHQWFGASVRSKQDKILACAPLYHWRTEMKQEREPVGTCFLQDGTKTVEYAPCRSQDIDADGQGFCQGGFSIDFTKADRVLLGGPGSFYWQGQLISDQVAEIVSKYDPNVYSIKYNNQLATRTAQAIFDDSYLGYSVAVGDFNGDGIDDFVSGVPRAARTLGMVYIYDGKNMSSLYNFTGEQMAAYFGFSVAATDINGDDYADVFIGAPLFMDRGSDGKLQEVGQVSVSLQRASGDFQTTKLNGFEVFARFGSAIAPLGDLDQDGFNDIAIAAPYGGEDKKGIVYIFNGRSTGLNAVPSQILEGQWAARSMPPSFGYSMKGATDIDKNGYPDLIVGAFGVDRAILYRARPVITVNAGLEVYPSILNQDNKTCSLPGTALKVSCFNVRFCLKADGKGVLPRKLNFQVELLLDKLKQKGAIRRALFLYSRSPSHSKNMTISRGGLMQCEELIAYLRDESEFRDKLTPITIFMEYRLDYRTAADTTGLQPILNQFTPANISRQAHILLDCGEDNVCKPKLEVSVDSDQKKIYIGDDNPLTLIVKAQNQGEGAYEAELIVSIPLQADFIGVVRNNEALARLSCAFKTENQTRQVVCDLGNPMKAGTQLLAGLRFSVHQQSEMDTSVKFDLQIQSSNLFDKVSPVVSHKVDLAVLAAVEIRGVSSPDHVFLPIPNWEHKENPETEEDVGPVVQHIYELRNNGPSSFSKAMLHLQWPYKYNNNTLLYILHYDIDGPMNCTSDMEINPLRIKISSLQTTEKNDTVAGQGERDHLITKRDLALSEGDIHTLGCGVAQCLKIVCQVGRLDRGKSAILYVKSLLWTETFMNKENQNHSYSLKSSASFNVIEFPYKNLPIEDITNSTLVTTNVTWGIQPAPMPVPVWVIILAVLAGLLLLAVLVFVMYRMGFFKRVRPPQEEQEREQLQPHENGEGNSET
T1 sequence (P05106 27-788, chain 2 of 2): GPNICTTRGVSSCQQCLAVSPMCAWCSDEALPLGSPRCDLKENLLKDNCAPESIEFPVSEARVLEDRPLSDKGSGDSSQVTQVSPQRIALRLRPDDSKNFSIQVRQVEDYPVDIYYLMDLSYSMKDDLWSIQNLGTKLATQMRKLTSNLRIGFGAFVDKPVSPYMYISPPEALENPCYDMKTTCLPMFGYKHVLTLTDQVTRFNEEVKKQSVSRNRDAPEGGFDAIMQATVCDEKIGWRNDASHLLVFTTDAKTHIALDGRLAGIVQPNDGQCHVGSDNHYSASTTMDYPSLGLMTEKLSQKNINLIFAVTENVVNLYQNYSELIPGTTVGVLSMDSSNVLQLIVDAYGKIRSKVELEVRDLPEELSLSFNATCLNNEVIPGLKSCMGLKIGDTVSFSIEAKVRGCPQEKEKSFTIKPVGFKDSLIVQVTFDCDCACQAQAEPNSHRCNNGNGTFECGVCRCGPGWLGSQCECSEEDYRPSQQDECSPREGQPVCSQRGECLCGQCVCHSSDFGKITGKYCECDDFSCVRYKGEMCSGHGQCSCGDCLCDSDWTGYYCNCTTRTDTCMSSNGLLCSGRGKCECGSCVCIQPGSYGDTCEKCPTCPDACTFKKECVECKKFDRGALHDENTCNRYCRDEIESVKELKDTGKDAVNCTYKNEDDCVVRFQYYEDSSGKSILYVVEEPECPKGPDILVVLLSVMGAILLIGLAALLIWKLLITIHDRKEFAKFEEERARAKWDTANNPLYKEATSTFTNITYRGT

B1: VH3/Vκ2 Composite Human Antibody variant of HLMC (antibody, human IgG1, kappa, V domains shown)
VH: QAQLVQSGAEVKKPGASVKVSCKASGYLFSNSWMNWVKQRRGAGLEWIGRIFPGDGDTNYNGKFKGRATITADKSTSTAYMELSSLRSEDTAVYFCARWGLTRDRRLYLDYWGQGTTVTVSS
VL: DIVMTQSPDSLAVSLGERATINCKSSQSLLYSSNQKNYLAWYQQKPGQAPRLLIYWASTRESGVPDRFTGSGSGTDFTLTISSLQAEDVAVYYCKQYYTYPLTFGQGTKLEIKR
notes: also called VH3/Vk2
Molecule B1 registered a concentration for a half-maximal effect (EC50) in experiment [1] of 47.4 nM. Moreover, the “relative binding score (EC50 of variant divided by EC50 of chimeric HLMC)” value in experiment [2] was 13.2 ratio.

B2: VH3/Vκ3 Composite Human Antibody variant of HLMC (antibody, human IgG1, kappa, V domains shown)
VH: QAQLVQSGAEVKKPGASVKVSCKASGYLFSNSWMNWVKQRRGAGLEWIGRIFPGDGDTNYNGKFKGRATITADKSTSTAYMELSSLRSEDTAVYFCARWGLTRDRRLYLDYWGQGTTVTVSS
VL: DIVMTQSPDSLAVSLGERATINCKSSQSLLYSSNQKNYLAWYQQKPGQAPRLLIYWASTRESGVPDRFSGSGSGTDFTLTISSLQAEDVAVYYCKQYYTYPLTFGQGTKLEIKR
notes: also called VH3/Vk3
Molecule B2 registered an EC50 in experiment [1] of 3.13 nM. Moreover, the “relative binding score (EC50 of variant divided by EC50 of chimeric HLMC)” value in experiment [2] came to 0.87 ratio.

B3: VH3/Vκ1 Composite Human Antibody variant of HLMC (antibody, human IgG1, kappa, V domains shown)
VH: QAQLVQSGAEVKKPGASVKVSCKASGYLFSNSWMNWVKQRRGAGLEWIGRIFPGDGDTNYNGKFKGRATITADKSTSTAYMELSSLRSEDTAVYFCARWGLTRDRRLYLDYWGQGTTVTVSS
VL: DIVMTQSPDSLVVSLGERATINCKSSQSLLYSSNQKNYLAWYQQKSGQAPRLLIYWASTRESGVPDRFTGSGSGTDFTLTISSLQAEDVAVYYCKQYYTYPLTFGQGTKLEIKR
notes: also called VH3/Vk1
Consider B3, for which the EC50 in experiment [1] worked out at 4.85 nM. Further, the “relative binding score (EC50 of variant divided by EC50 of chimeric HLMC)” value in experiment [2] was found to be 1.35 ratio.

B4: VH2/Vκ2 Composite Human Antibody variant of HLMC (antibody, human IgG1, kappa, V domains shown)
VH: QAQLVQSGPEVKKPGASVKVSCKASGYLFSNSWMNWVKQRPGAGLEWIGRIFPGDGDTNYNGKFKGRATITADKSTSTAYMELSSLRSEDTAVYFCARWGLTRDRRLYLDYWGQGTTVTVSS
VL: DIVMTQSPDSLAVSLGERATINCKSSQSLLYSSNQKNYLAWYQQKPGQAPRLLIYWASTRESGVPDRFTGSGSGTDFTLTISSLQAEDVAVYYCKQYYTYPLTFGQGTKLEIKR
notes: also called VH2/Vk2
Turning to B4, in experiment [1], a half-maximal effect (EC50) was put at 4.92 nM. Moreover, the “relative binding score (EC50 of variant divided by EC50 of chimeric HLMC)” value in experiment [2] was found to be 1.37 ratio.

B5: VH4/Vκ1 Composite Human Antibody variant of HLMC (antibody, human IgG1, kappa, V domains shown)
VH: QAQLVQSGAEVKKPGASVKVSCKASGYLFSNSWMNWVKQRRGAGLEWIGRIFPGDGDTNYNGKFKGRVTITADKSTSTAYMELSSLRSEDTAVYFCARWGLTRDRRLYLDYWGQGTTVTVSS
VL: DIVMTQSPDSLVVSLGERATINCKSSQSLLYSSNQKNYLAWYQQKSGQAPRLLIYWASTRESGVPDRFTGSGSGTDFTLTISSLQAEDVAVYYCKQYYTYPLTFGQGTKLEIKR
notes: also called Vh4/Vk1; VH4/Vk1
For the molecule B5, the concentration for a half-maximal effect (EC50) in experiment [1] was found to be 3.12 nM. In experiment [2], the “relative binding score (EC50 of variant divided by EC50 of chimeric HLMC)” value turned out to be 0.87 ratio.

B6: VH1/Vκ3 Composite Human Antibody variant of HLMC (antibody, human IgG1, kappa, V domains shown)
VH: QAQLVQSGPELKKPGASVKVSCKASGYLFSNSWMNWVKQRPGAGLEWIGRIFPGDGDTNYNGKFKGRATITADKSTSTAYMELSSLRSEDSAVYFCARWGLTRDRRLYLDYWGQGTTVTVSS
VL: DIVMTQSPDSLAVSLGERATINCKSSQSLLYSSNQKNYLAWYQQKPGQAPRLLIYWASTRESGVPDRFSGSGSGTDFTLTISSLQAEDVAVYYCKQYYTYPLTFGQGTKLEIKR
notes: also called VH1/Vk3
The molecule B6 came in with an EC50 in experiment [1] of 4.08 nM. Moreover, in experiment [2], the “relative binding score (EC50 of variant divided by EC50 of chimeric HLMC)” value came out at 1.14 ratio.

B7: VH1/Vκ2 Composite Human Antibody variant of HLMC (antibody, human IgG1, kappa, V domains shown)
VH: QAQLVQSGPELKKPGASVKVSCKASGYLFSNSWMNWVKQRPGAGLEWIGRIFPGDGDTNYNGKFKGRATITADKSTSTAYMELSSLRSEDSAVYFCARWGLTRDRRLYLDYWGQGTTVTVSS
VL: DIVMTQSPDSLAVSLGERATINCKSSQSLLYSSNQKNYLAWYQQKPGQAPRLLIYWASTRESGVPDRFTGSGSGTDFTLTISSLQAEDVAVYYCKQYYTYPLTFGQGTKLEIKR
notes: also called VH1/Vk2
As to B7, in experiment [1], the EC50 is 5.43 nM. Further, the “relative binding score (EC50 of variant divided by EC50 of chimeric HLMC)” value in experiment [2] was found to be 1.52 ratio.

B8: VH4/Vκ3 Composite Human Antibody variant of HLMC (antibody, human IgG1, kappa, V domains shown)
VH: QAQLVQSGAEVKKPGASVKVSCKASGYLFSNSWMNWVKQRRGAGLEWIGRIFPGDGDTNYNGKFKGRVTITADKSTSTAYMELSSLRSEDTAVYFCARWGLTRDRRLYLDYWGQGTTVTVSS
VL: DIVMTQSPDSLAVSLGERATINCKSSQSLLYSSNQKNYLAWYQQKPGQAPRLLIYWASTRESGVPDRFSGSGSGTDFTLTISSLQAEDVAVYYCKQYYTYPLTFGQGTKLEIKR
notes: also called VH4/Vk3
For B8, in experiment [1], the EC50 came out at 2.03 nM. In addition, in experiment [2], the “relative binding score (EC50 of variant divided by EC50 of chimeric HLMC)” value was found to be 0.57 ratio.

B9: VH5/Vκ3 Composite Human Antibody variant of HLMC (antibody, human IgG1, kappa, V domains shown)
VH: QAQLVQSGAEVKKPGASVKVSCKASGYLFSNSWMNWVKQRRGAGLEWIGRIFPGDGDTNYNGKFKGRVTITADKSTSTAYMELSSLRSEDTAVYYCARWGLTRDRRLYLDYWGQGTTVTVSS
VL: DIVMTQSPDSLAVSLGERATINCKSSQSLLYSSNQKNYLAWYQQKPGQAPRLLIYWASTRESGVPDRFSGSGSGTDFTLTISSLQAEDVAVYYCKQYYTYPLTFGQGTKLEIKR
notes: also called VH5/Vk3
Consider B9, for which a half-maximal effect in experiment [1] (EC50) was put at 3.15 nM. The “relative binding score (EC50 of variant divided by EC50 of chimeric HLMC)” value in experiment [2] came out at 0.88 ratio.

B10: VH2/Vκ3 Composite Human Antibody variant of HLMC (antibody, human IgG1, kappa, V domains shown)
VH: QAQLVQSGPEVKKPGASVKVSCKASGYLFSNSWMNWVKQRPGAGLEWIGRIFPGDGDTNYNGKFKGRATITADKSTSTAYMELSSLRSEDTAVYFCARWGLTRDRRLYLDYWGQGTTVTVSS
VL: DIVMTQSPDSLAVSLGERATINCKSSQSLLYSSNQKNYLAWYQQKPGQAPRLLIYWASTRESGVPDRFSGSGSGTDFTLTISSLQAEDVAVYYCKQYYTYPLTFGQGTKLEIKR
notes: also called VH2/Vk3
The molecule B10 displayed an EC50 in experiment [1] of 3.7 nM. Also, the “relative binding score (EC50 of variant divided by EC50 of chimeric HLMC)” value in experiment [2] came to 1.03 ratio.

B11: VH5/Vκ1 Composite Human Antibody variant of HLMC (antibody, human IgG1, kappa, V domains shown)
VH: QAQLVQSGAEVKKPGASVKVSCKASGYLFSNSWMNWVKQRRGAGLEWIGRIFPGDGDTNYNGKFKGRVTITADKSTSTAYMELSSLRSEDTAVYYCARWGLTRDRRLYLDYWGQGTTVTVSS
VL: DIVMTQSPDSLVVSLGERATINCKSSQSLLYSSNQKNYLAWYQQKSGQAPRLLIYWASTRESGVPDRFTGSGSGTDFTLTISSLQAEDVAVYYCKQYYTYPLTFGQGTKLEIKR
notes: also called VH5/Vk1
In experiment [1], B11 had an EC50 of 4.42 nM. In addition, in experiment [2], the “relative binding score (EC50 of variant divided by EC50 of chimeric HLMC)” value came to 1.23 ratio.

B12: VH2/Vκ1 Composite Human Antibody variant of HLMC (antibody, human IgG1, kappa, V domains shown)
VH: QAQLVQSGPEVKKPGASVKVSCKASGYLFSNSWMNWVKQRPGAGLEWIGRIFPGDGDTNYNGKFKGRATITADKSTSTAYMELSSLRSEDTAVYFCARWGLTRDRRLYLDYWGQGTTVTVSS
VL: DIVMTQSPDSLVVSLGERATINCKSSQSLLYSSNQKNYLAWYQQKSGQAPRLLIYWASTRESGVPDRFTGSGSGTDFTLTISSLQAEDVAVYYCKQYYTYPLTFGQGTKLEIKR
notes: also called VH2/Vk1
In experiment [1], B12 returned an EC50 of 4.55 nM. The “relative binding score (EC50 of variant divided by EC50 of chimeric HLMC)” value in experiment [2] was 1.27 ratio.

The values are drawn from patent publication US20150259422A1 (UNIVERSITY OF NORTH CAROLINA AT CHAPEL HILL, published 2015).
